Reference: patent US20240228596A1

Molecular target: SARS-COV-2 Wuhan WT Spike_del18 on VSV-delG pseudotyped particles (SARS-COV-2) (UniProt P0DTC2)
Assay: cell-based or functional assay

“VHH72-5mut-Fc (VHH72_h1_E1D_R27L_E31D_Y32I_S56G_L97A-10xGS-hIgG1_EPKSCdel_LALA_K447del) (Fc fusion)” showed a potency of neutralization against D72-53 of 2.5 times.
